Experiment [1] concerns the target bacterial proteasome activator (Bpa), fluorescein-labelled (M. tuberculosis) (UniProt P9WKX3).
The target is the same in experiment [2]. The experiment in a line: MST.
In experiment [3] the target is bacterial proteasome activator (Bpa), labelled with RED-NHS second generation dye (M. tuberculosis) (UniProt P9WKX3). The experiment in a line: MST; temperature-related fluorescence intensity changes (T-jump model) on a Monolith NT.115; 250 nM Bpa-RED protomer titrated with serial dilutions of peptides 1-7; buffer M (50 mM HEPES-KOH pH 7.5, 150 mM NaCl, 5 mM MgCl2, 5% glycerol, 0.1% pluronic 127, 2% DMSO); 25°C; qualitative screen, then peptide 1 in triplicates.

Experiment [4] deals with bacterial proteasome activator (Bpa), fluorescein-labelled (M. tuberculosis) (UniProt P9WKX3). The experiment in a line: MST. The source holds these as a separate data set.

Where two headings read alike, the source gives them in different places.

Usually Kd stands for the equilibrium constant for the complex coming apart.

On to HspR H24A (natural protein), for which the Bpa-mediated proteasomal degradation by 20S CP WT, SDS-PAGE time course, 37°C (unlabelled Bpa) (% degraded after 2 h) in experiment [1] is 90. Further, in experiment [2], the Kd came out at 12.1 µM.

Regarding HspR peptide 1 (residues 16-30), the Kd in experiment [3] was 330 µM.

With “HspRΔC9, C-terminal truncation variant of HspR (domain or fragment)”, in experiment [4], the Kd was 3.62 µM. That is a single-digit micromolar value.

Consider “heat shock repressor HspR, wild type (natural protein)”, for which the Bpa-mediated proteasomal degradation by 20S CP WT, SDS-PAGE time course, 37°C (unlabelled Bpa) (min to degradation) in experiment [1] was < 5. The Kd in experiment [2] is 3.56 µM; in experiment [4], 5.6 µM.

Values taken from PMC10415612.
